Reference: US20210032308A1 (published 2021)

Molecular target: T1, recombinant human CD2 (biotinylated) (human, UniProt P06729 25-209, biotinylated (site not stated))
T1 construct: also called hCD2-biotin; human recombinant CD2
T1 sequence: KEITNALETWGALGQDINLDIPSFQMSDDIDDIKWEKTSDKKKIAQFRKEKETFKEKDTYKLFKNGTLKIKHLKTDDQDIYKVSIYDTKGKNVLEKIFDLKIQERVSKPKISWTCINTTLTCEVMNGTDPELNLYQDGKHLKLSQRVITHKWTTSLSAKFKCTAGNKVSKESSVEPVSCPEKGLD
Assay: flow cytometry on LFA3-displaying yeast

binding result: binds
B1: N-terminal Ig-domain of human LFA3 (Residues 1-93) displayed on the surface of S. cerevisiae (ligand, not shown: small tags and cut ends; large carriers)
chain: FSQQIYGVVYGNVTFHVPSNVPLKEVLWKKQKDKVAELENSEFRAFSSFKNRVYLDTVSGSLTIYNLTSSDEDEYEMESPNITDTMKFFLYVL
